Data from paper PMC9175105.

Tests used:
[1] = molecular target: shedded GPIbα or glycocalicin (UniProt P07359)
[2] = molecular target: shedded GPIbα or glycocalicin (UniProt P07359); experiment: biomembrane force probe (BFP), force-clamp assay; bead-bead mode; VWF-A1 on the probe bead, glycocalicin on the target bead; single bonds held at clamp forces of 10-70 pN; bond lifetime vs force; beads without treatment
[3] = molecular target: shedded GPIbα or glycocalicin (UniProt P07359); experiment: biomembrane force probe (BFP), adhesion frequency assay; bead-bead mode; VWF-A1 covalently linked to the probe bead, glycocalicin to the target bead; 20 pN impingement, 0.2 s contact; 200 approach-contact-retract cycles per probe-target pair, five pairs

mean rolling velocity of washed human platelets (native GPIbα) on coated 1261^H-A1 at 800 s^-1 [1]: 3.15 μm s^−1
tethered platelet density; washed human platelets (native GPIbα) perfused at 800 s^-1 for 30 s over coated 1261^H-A1, no treatment [1]: 0.0053 μm^−2
peak bond lifetime at 20-25 pN [2]: 2.26 s
adhesion frequency (Pa) [3]: 0.13
Substance: VWF-A1 with short N-AIM, high binder form, 1261^H-A1 (from UniProt P04275 1261-1472) (domain or fragment)
